Laboratory results as given in the DeepSol protein solubility set.

Experiment: soluble on expression in E. coli; label from the status in PepcDB or PDB records

Soluble on expression in E. coli, not soluble:
MDKGKGSKRSTPSLRAKKKTGTDRQKPSVKQNASQNSKKSSRQKKTPSVGKEREQATDKKREIEKKPQEKTALDEQQRKAQTETISNLEILPDKNPAKMDDGYEDFGPGAAAR
MSNKLETGIQYMQEGNWEEAAKNFTEAIEENPKDALGYINFANLLDVLGDSERAILFYKRALELDDKSAAAYYGLGNVYYGQEQFTEAKAVFEQAMQAGLQSADVTFMLGITHVQLGNDRLALPFLQRATELDENDVEAVFQCGLCFARLEHVQEAKPYFEKVLEMDEEHADAYYNLGVAYVFEENNEKALALFKKATEIQPDHFLAGNGVRLLEQEAE
MTQTVYVKLSQITQVHKKDVFLSDIADVYCSDKSTASRCKAVKVQTIHSDQEKRYMGSIVDVVQKISENVPEAEVNSVGETDFIIDYQPSKKPMYTWQW
MSLGKPEFYDFCVHAVPDGANAVEELSSLSRHLGYSGIALANHSDKLPSKKPVLPSIEGFEVFRGIELVEENPSKLHGLVGKFRSSMDVLIVHGGSEAVNRAALENPRVDILNHPAFDKSSGLNQVLAKAAAENGVAIGITLRPLLHSRGSRRIRMLSDLKANLELARKYDVPLVLCSDAMSCYDLRSPMETLAFAEVCGLEEDEALDALSTVPKKIIKKNRPGPGYVREGIEVLEGEGHHHHHH
KLMKVNHAADAAEEGLVSDPLEWTGVRIGPGINGTIAQLPTLAGEEIIATRVVHSKTFHSLAAPNDRLHEGMVLVIHGTPDALERAIAKVGKQQDVPIEDTDLVYSRFTVSSKAVVGRKISDLDTVRSGFIISRLRRGDADVVPEPDDVLHYSDRVRVIAPANRMSEVRRFLGDSERSLADVD
MGSDKIHHHHHHMNRESMRPQFAPARSPSDVAMISRHIEAGVHRLPRAPHHRVMVHASAATRSYCNQVGRYFVRRAGDIDLVPAGEEGGFEAETAFDTVEIVLPPALMERVAAELGGRALVSRLDTRHLLRDQRIEHLARALQNDLDAGAPSGSLFADSIGAALAVRLLGVDDDIDIERTNRLSDTQLKRVLEHIEAALHEPLSIDRLARVAGASSSHLRTWFKVATGVTLHRYVLRRRVERARLLLERGDLSTSEVAELTGFAHQSHLAHWMRREIGQTPRDVRRARPPK
MGSDKIHHHHHHMQISNEDYEQLKPLLFSLGYRLLGSVTDAEDLVQETFLRAYQAEEREINNKKAYLCKMMTNRCLDVLKSARRKREQYVGPWLPEPLLITSDDPSEAILQKEGLSMAYLRMMEHLTPHERAVFLLREVFTFSYREIASMMEKKEDNCRKLYSRAKEKLSAVKGESLHYENNRSVVDRFIHSFQTEDQGDLLELLSDHVTLYTDGGGKVRAALRPIYTKDHVAAFLFGIAKKRPNDFYVEVKNVNGQPALISYADSKLYNVICFYIVGGQIQDIYIIMNPEKLPSNG
MSLSDGAVVRALVLEAPRRLVVRQYRLPRIGDDDALVRVEACGLCGTDHEQYTGELAGGFAFVPGHETVGTIAAIGPRAEQRWGVSAGDRVAVEVFQSCRQCANCRGGEYRRCVRHGLADMYGFIPVDREPGLWGGYAEYQYLAPDSMVLRVAGDLSPEVATLFNPLGAGIRWGVTIPETKPGDVVAVLGPGIRGLCAAAAAKGAGAGFVMVTGLGPRDADRLALAAQFGADLAVDVAIDDPVAALTEQTGGLADVVVDVTAKAPAAFAQAIALARPAGTVVVAGTRGVGSGAPGFSPDVVVFKELRVLGALGVDATAYRAALDLLVSGRYPFASLPRRCVRLEGAEDLLATMAGERDGVPPIHGVLTEGHHHHHH
MITTPNISLTPTVAPPVDFPIIGNCDFQAQLWHLMSLHLQMQKSSAASTSSSSSSSTSSENLKKSPSSVQNTSVFSIDNILNSQKVPKLELENDEDVSSSPSPTCSTTGYTLDSLQNLDRRSLNKKGPSSHNRCVCDKCGKSYATTSNLSRHKQTHRALDSPHAKQCPHCDRVYVSMPALSMHILTHNASHECNVCGKRFSRLWLLQGHLRSHTGLRPFSCAHCGKSFADRSNLRAHMLTHTGDKRFECDKCGRRFALRAYLNRHLETCK

Soluble on expression in E. coli, soluble:
MSEQTVQVKTTGKILQSPCGPIIHGLEDVLIKSTSISDIDGEKGILWYRGYRIEELARLSTYEEVSYLILYGRLPTKRELEDYINRMKKYRELHPATVEVIRNLAKAHPMFALEAAVAAEGAYDEDNQKLIEALSVGRYKAEEKELAYRIAEKLVAKMPTIVAYHYRFSRGLEVVRPRDDLGHAANFLYMMFGREPDPLASRGIDLYLILHADHEVPASTFAAHVVASTLSDLYSSVAAAIAALKGPLHGGANEMAVRNYLEIGTPAKAKEIVEAATKPGGPKLMGVGHRVYKAYDPRAKIFKEFSRDYVAKFGDPQNLFAIASAIEQEVLSHPYFQQRKLYPNVDFWSGIAFYYMGIPYEYFTPIFAMSRVVGWVAHVLEYWENNRIFRPRACYIGPHDLQYIPLEQR
MRGHHHHHHHGSMTIEFVGVEKIYPGGARSVRGVSFQIREGEMVGLLGPSGSGKTTILRLIAGLERPTKGDVWIGGKRVTDLPPQKRNVGLVFQNYALFQHMTVYDNVSFGLREKRVPKDEMDARVRELLRFMRLESYANRFPHELSGGQQQRVALARALAPRPQVLLFDEPFAAIDTQIRRELRTFVRQVHDEMGVTSVFVTHDQEEALEVADRVLVLHEGNVEQFGTPEEVYEKPGTLFVASFIGESNVWTRAVQNGRIEVAGAALPVDPAVSEGSEVAVVVRPKDVELQPASEREAHAQVVRSAFKGSYSACWIRTKDGEVWEVHVPSADRHRWSPGAWVHMNVTRWFIFPR
MKRDGHTHTEFCPHGTHDDVEEMILKAIELDFDEYSIVEHAPLSSEFMKNTAGNQEAVTTASMSMSDLPYYFKKMNQMKKKYASDLLIHIGFEVDYLIGYEDFTRDFLNEYGPQTDDGVLSLHFLEGQGGFRSIDFTAEDYNEGIVQFYGGFEQAQLVYLAGVKQSIEADLGAFKPRRIGHISLCQKFQQFFGADGRDFTAEVIAEFEAILALVKKRGYELDFNTAGLFKPLCKETYPPKEIVTLARALEIPFVYGSDSHGVADIGRGYNTYCQKLEHHHHHH
MMARVTPDQALISFRNARILWAGHSESRKAVEQQIESLLTAMEKPADYARQLELQREHLDVLKWQINCAARECIYSQHQLMEACTEDALSNFMQANGAALTSALAPFLKGRGGVDVASRILRNALVRQLAITPPEIAGDYRMILDESGVMPDPMMVRDCQSSYTPAQQLRFQQRLDYINGMQE
MGSSHHHHHHSSGENLYFQGHMSVSAFNRRWAAVILEALTRHGVRHICIAPGSRSTPLTLAAAENSAFIHHTHFDERGLGHLALGLAKVSKQPVAVIVTSGTAVANLYPALIEAGLTGEKLILLTADRPPELIDCGANQAIRQPGMFASHPTHSISLPRPTQDIPARWLVSTIDHALGTLHAGGVHINCPFAEPLYGEMDDTGLSWQQRLGDWWQDDKPWLREAPRLESEKQRDWFFWRQKRGVVVAGRMSAEEGKKVALWAQTLGWPLIGDVLSQTGQPLPCADLWLGNAKATSELQQAQIVVQLGSSLTGKRLLQWQASCEPEEYWIVDDIEGRLDPAHHRGRRLIANIADWLELHPAEKRQPWCVEIPRLAEQAMQAVIARRDAFGEAQLAHRICDYLPEQGQLFVGNSLVVRLIDALSQLPAGYPVYSNRGASGIDGLLSTAAGVQRASGKPTLAIVGDLSALYDLNALALLRQVSAPLVLIVVNNNGGQIFSLLPTPQSERERFYLMPQNVHFEHAAAMFELKYHRPQNWQELETAFADAWRTPTTTVIEMVVNDTDGAQTLQQLLAQVSHL
MDSAREVSDGRLTVEGFSVASRAFADKWKIHNQSFPPWSWVPLINRTLLVSKKEEGYLSLEKIIILSSLEEEIPEDESLNVATDCLEKEETVDHTILVPTMENEAHYYDFHIVYSASYKVPVLYFRGYCSGGEPLALDVIKKDVPSCSVSLLLESKWTFITQEEHPYLNRPWFKLHPCGTEDWIKLLSQSSSSSGCQMPIVLYLVSWFSVVGQVVGLRIPLEMLN
MGSDKIHHHHHHMVKVLILGQGYVASTFVAGLEKLRKGEIEPYGVPLARELPIGFEDIKIVGSYDVDRAKIGKKLSEVVKQYWNDVDSLTSDPEIRKGVHLGSVRNLPIEAEGLEDSMTLKEAVDTLVKEWTELDPDVIVNTCTTEAFVPFGNKEDLLKAIENNDKERLTATQVYAYAAALYANKRGGAAFVNVIPTFIANDPAFVELAKENNLVVFGDDGATGATPFTADVLSHLAQRNRYVKDVAQFNIGGNMDFLALTDDGKNKSKEFTKSSIVKDILGYDAPHYIKPTGYLEPLGDKKFIAIHIEYVSFNGATDELMINGRINDSPALGGLLVDLVRLGKIALDRKEFGTVYPVNAFYMKNPGPAEEKNIPRIIAYEKMRIWAGLKPKWL
MREIPLVSVALATYNGERYLRRQLDSVLAQTYRNIEIVVSDDCSRDGTVAILEEYRRAHGITFRVNERNLGFVRNFERALAGCRGEFIALSDQDDIWLPEKIETLVREIGPHSLIYTDALLIDGDDQPLPGSLVEVSGVRPVSGTCFEYFVCNNCVTGCTAMLRRDLLATALPIPEAETYHDWWLAVAASRRNGVVYHAAKLTEYRQHAHNYTGANVRAGLPARIAAHLMGKTAAEKRGYYELLANRARRYRAMADRLNLTPAERSFLEEIGEYAESLLSGGNRMKTFALALKYRETLFPAAGRWEKLLFVFSKLIAARAILEHHHHHH
MDFPPTKLDYHVDMFNLQSHSRFLSLFKAQDGRIALILESTVFHPQGGGQPSDTGLIVFSGSDLKFSVQDVLHYGVFEGSNPESGIDSEKGKEVYLTVDESRRKLNSRQAVEDCSHCYAWHGWNKISDVWLHSAGHLLDMCMQKVGLGHLEPGKGYHFPDGPFVEYKGSVPQEEFQVKQKELEAEANELISKGGKVYAAILPYEEASVLCGGSLPDYISKGSTPRIIKLGDSPGCPCGGTHVSNLSDIISMKITQMRTKKGMTKVFYTIAS
MHSAKNEKCNACGGYRFSVNDGFKYCDRCGALFENFEELEEEEGGLQQTVGQGKVKVRKNDDQKRVRNNAAPVNLPKAQVMREALEKRSDFLQQQAIKGEELELPHDATPDYLYRLALRLFSFTQILAKSGHILVHELNFESRVQENILATFQKYLAHCQVAFCHSEQCGNDEHLRFVAVMENLRYEQEEREEKQRKRMAKRGKGVNALSKSAAAWTLLTQGNITEHLDIASDEDGDQDAQGGQQLDDLTLETTQNPDESIRVNDTTMGFVRKVTTALSKEALRRASQLILNLEMLVAILHSALMSSGYQTILTSDVVRWIREDRFRISRRSIRLIRQSQPERMKQGEVVKPTIVDYAEPFLRFPLYEIMRTCTIFHQSLKLASSMAPQSFESMSARLVDNLNLPSDILSRMLILESIIPCDVSPQLLKQVDVDMGYNCGQLAAMSPNVYYSGFLTSFGRKERGTQDADFCDEVLLSPDAKLIAYLLLTLRLTFQLDNAQCALQDDQYFDVDSWIHQLEMRIKCWQGHNMSLVMRSSSHVPEMVVDPPFGTNYLFHQEKGAPQVSCRRRQAGFQKCIPTEMSFNSTSTLPTVFDVRHMGLLTERCQMEALISPVKFQRTVLGNEIERDPLTFENVDRQSKNTFFKHFSAFKTTESCDTFEEYFPCAKNYLLFKRPDWIQNCTARQTHFNPVTGPIRFYLSNQSCDDLLGTAATSFSRRFQFLLDALSLIIGEDKKAVYAAFVMLEMHLTSSERIQSIRDDLLTSSPITLKCQKFRNSTHHIPRKYGVISEVPIDRIENLRYFRLSRQFFEHEEMPTTINMELIDYRNQEIRDSVTETEVQRAQNRIMKLCYEFEQFFGILAVKFW
